Data reported in patent US20240309087A1 (SHANGHAI JUNSHI BIOSCIENCES, published 2024).
Substitutions are numbered along the chain they refer to.

B1: Hu22 (antibody, IgG4, V domains shown)
VH: EVQLVESGGGLVKPGGSLRLSCAASGFTFSSYHMSWVRQAPGKGLELVSAISRDGDSTYYPDTVKGRFTISRDDAENSLYLQMNSLRAEDTAVYYCSRHEDYFGFAMDSWGQGTLVTVSS
VL: DIVMTQSPDSLAVSLGERATINCKASQSVSNDVAWYQQKPGQPPKLLIYYVSHRFTGVPDRFSGSGSGTDFTLTISSLQAEDVAVYFCHQAYRSPWTFGQGTKLEIK
notes: humanized IgG4
B2: Hu23 (antibody, IgG4, V domains shown)
VH: B1 VH
VL: DIQMTQSPSSLSASVGDRVTITCKASQSVSNDVAWYQQKPGKAPKLLIYYVSNRFTGVPSRFSGSGSGTDFTLTISSLQPEDFATYFCQQAYRSPWTFGQGTKLEIK
notes: humanized IgG4
B3: Hu28 (antibody, IgG4, V domains shown)
VH: B1 VH with K13Q, S49A, D74N, E76K
VL: B1 VL
notes: humanized IgG4
B4: Hu34 (antibody, IgG4, V domains shown)
VH: B1 VH with K13Q, S49A
VL: B1 VL
notes: humanized IgG4
B5: Hu35 (antibody, IgG4, V domains shown)
VH: B1 VH with K13Q, S49A
VL: B2 VL
notes: humanized IgG4
B6: Hu29 (antibody, IgG4, V domains shown)
VH: B1 VH with K13Q, S49A, D74N, E76K
VL: B2 VL
notes: humanized IgG4
B7: Hu54 (antibody, IgG4, V domains shown)
VH: EVQLVESGGGLVKPGGSLRLSCAASGFTFSSYHMSWVRQAPGKGLELVSAINSNGINTYYLDTVKGRFTISRDNAKNSLYLQMNSLRAEDTAVYYCARHEDYYGFAMDYWGQGTLVTVSS
VL: EIVMTQSPPTLSLSPGERVTLSCKASQSVSNDVAWYQQKPGQAPRLLIYYVSNRFTGIPARFSGSGSGTDFTLTISSLQPEDFAVYFCQQAYRSPWTFGQGTKLEIK
notes: humanized IgG4
B8: Hu17 (antibody, IgG4, V domains shown)
VH: B1 VH with D74N, E76K
VL: B2 VL
notes: humanized IgG4
B9: Hu24 (antibody, IgG4, V domains shown)
VH: B1 VH
VL: B7 VL
notes: humanized IgG4
B10: Hu30 (antibody, IgG4, V domains shown)
VH: B1 VH with K13Q, S49A, D74N, E76K
VL: B7 VL
notes: humanized IgG4
B11: Hu36 (antibody, IgG4, V domains shown)
VH: B1 VH with K13Q, S49A
VL: B7 VL
notes: humanized IgG4
B12: Hu33 (antibody, IgG4, V domains shown)
VH: B1 VH with K13Q, S49A
VL: B7 VL with Q38E, N53H, F87Y, Q89H
notes: humanized IgG4
B13: Hu60 (antibody, IgG4, V domains shown)
VH: B7 VH with K13Q, V37I, S49A
VL: B7 VL
notes: humanized IgG4
B14: Hu57 (antibody, IgG4, V domains shown)
VH: B7 VH with K13Q, V37I, S49A
VL: B7 VL with Q38E, N53H, F87Y, Q89H
notes: humanized IgG4

molecular target: T1, hCD112R mFC recombinant protein (human; murine, UniProt Q6DKI7 41-160); test: ELISA, coated hCD112R-ECD-mFC; EC50 COM701/EC50 antibody
T1 construct: range 41-160; expressed in 293E cells; also called hCD112R ECD mFC; hCD112R-ECD-mFC; not shown: murine IgG2a Fc domain (MX2-mFc vector)
T1 sequence (looked up): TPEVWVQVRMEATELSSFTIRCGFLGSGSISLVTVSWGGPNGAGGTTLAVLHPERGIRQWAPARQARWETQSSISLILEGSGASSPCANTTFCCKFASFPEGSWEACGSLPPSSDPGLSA
Method in brief: (§1)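 Plates coated with hCD112R-ECD-mFC at 1.5 μg/mL; humanized antibodies titrated from 1 μg/mL, 2.5-fold, 12 points. Bound antibody detected with HRP anti-human IgG Fc and TMB, read at 420/620 nm; EC50 from 4PL fit, COM701 and anti-KLH hu-IgG4 as controls.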

| Binder | Relative activity (%) |
| --- | --- |
| B1 | 156 |
| B2 | 153 |
| B3 | 127 |
| B4 | 162 |
| B5 | 136 |
| B6 | 147 |
| B7 | 145 |
| B8 | 136 |
| B9 | 155 |
| B10 | 153 |
| B11 | 142 |
| B12 | 174 |
| B13 | 139 |
| B14 | 171 |

molecular target: T2, human CD112R on Jurkat CD112R effector cells (human, UniProt Q6DKI7 1-326); test: cell-based or functional assay
T2 sequence (looked up): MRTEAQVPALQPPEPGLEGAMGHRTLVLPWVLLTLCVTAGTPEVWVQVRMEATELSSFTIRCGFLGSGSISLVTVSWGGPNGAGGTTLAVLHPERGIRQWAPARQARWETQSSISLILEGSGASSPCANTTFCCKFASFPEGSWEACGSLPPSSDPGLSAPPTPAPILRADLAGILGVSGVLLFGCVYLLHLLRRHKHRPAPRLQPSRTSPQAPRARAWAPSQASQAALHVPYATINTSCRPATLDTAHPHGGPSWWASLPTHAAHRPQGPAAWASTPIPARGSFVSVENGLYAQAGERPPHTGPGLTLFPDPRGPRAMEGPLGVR

| Binder | EC50, CD112R/CD112 reporter [mg/L] | Relative activity (%), EC50 COM701/EC50 antibody [%] |
| --- | --- | --- |
| B1 | 0.0267 | 191 |
| B2 | 0.0374 | 217 |
| B3 | 0.0306 | 232 |
| B4 | 0.0336 | 160 |
| B5 | 0.031 | 184 |
| B6 | 0.0272 | 230 |
| B7 | 0.0241 | 300 |
| B8 | 0.0228 | 241 |
| B9 | 0.0485 | 167 |
| B10 | 0.034 | 184 |
| B11 | 0.0356 | 160 |
| B12 | 0.0341 | 157 |
| B13 | 0.0225 | 261 |
| B14 | 1.33 | 4.5 |

molecular target: T1, hCD112R mFC recombinant protein; test: FACS competition, hCD112R mFc on CHO CD112 cells
Method in brief: (§2)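 CHO cells overexpressing human CD112 were co-incubated 30 min at 4 °C with hCD112R mFc (5 μg/mL) and humanized anti-CD112R antibodies (from 100 μg/mL, 3-fold, 10 points). Bound fusion protein detected with anti-mouse IgG Fc secondary by flow cytometry; IC50 from four-parameter fit of MFI. COM701 served as positive control, anti-KLH hu-IgG4 as negative.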

| Binder | IC50 [mg/L] |
| --- | --- |
| B1 | 2.67 |
| B2 | 2.53 |
| B3 | 2.27 |
| B4 | 2.4 |
| B5 | 3.4 |
| B6 | 3.67 |
| B7 | 3.25 |
| B8 | 2.12 |
| B9 | 2.89 |
| B10 | 2.37 |
| B11 | 2.44 |
| B12 | 2.48 |
| B13 | 3.49 |
| B14 | 3.64 |

molecular target: T1, hCD112R mFC recombinant protein; test: ELISA, coated hCD112R-ECD-mFC
Method in brief: as §1

| Binder | EC50 [mg/L] |
| --- | --- |
| B1 | 0.00425 |
| B2 | 0.00436 |
| B3 | 0.00479 |
| B4 | 0.00368 |
| B5 | 0.00439 |
| B6 | 0.00413 |
| B7 | 0.00631 |
| B8 | 0.00418 |
| B9 | 0.00429 |
| B10 | 0.00396 |
| B11 | 0.0042 |
| B12 | 0.00348 |
| B13 | 0.00602 |
| B14 | 0.00535 |

molecular target: T1, hCD112R mFC recombinant protein; test: FACS competition, hCD112R mFc on CHO CD112 cells; IC50 COM701/IC50 antibody
Method in brief: as §2

| Binder | Relative activity (%) |
| --- | --- |
| B1 | 134 |
| B2 | 141 |
| B3 | 157 |
| B4 | 149 |
| B5 | 105 |
| B6 | 97 |
| B7 | 74.1 |
| B8 | 169 |
| B9 | 124 |
| B10 | 151 |
| B11 | 146 |
| B12 | 144 |
| B13 | 69 |
| B14 | 66.2 |
